B1: TBC1 domain family member 24 (Homo sapiens), Q9ULP9-2 (parent)
chain: MDSPGYNCFVDKDKMDAAIQDLGPKELSCTELQELKQLARQGYWAQSHALRGKVYQRLIRDIPCRTVTPDASVYSDIVGKIVGKHSSSCLPLPEFVDNTQVPSYCLNARGEGAVRKILLCLANQFPDISFCPALPAVVALLLHYSIDEAECFEKACRILACNDPGRRLIDQSFLAFESSCMTFGDLVNKYCQAAHKLMVAVSEDVLQVYADWQRWLFGELPLCYFARVFDVFLVEGYKVLYRVALAILKFFHKVRAGQPLESDSVKQDIRTFVRDIAKTVSPEKLLEKAFAIRLFSRKEIQLLQMANEKALKQKGITVKQKRQFVHLAVHAENFRSEIVSVREMRDIWSWVPERFALCQPLLLFSSLQHGYSLARFYFQCEGHEPTLLLIKTTQKEVCGAYLSTDWSERNKFGGKLGFFGTGECFVFRLQPEVQRYEWVVIKHPELTKPPPLMAAEPTAPLSHSASSDPADRLSPFLAARHFNLPSKTESMFMAGGSDCLIVGGGGGQALYIDGDLNRGRTSHCDTFNNQPLCSENFLIAAVEAWGFQDPDTQ
B2: ADP-ribosylation factor 6 (Homo sapiens), P62330 (parent)
chain: MGKVLSKIFGNKEMRILMLGLDAAGKTTILYKLKLGQSVTTIPTVGFNVETVTYKNVKFNVWDVGGQDKIRPLWRHYYTGTQGLIFVVDCADRDRIDEARQELHRIINDREMRDAIILIFANKQDLPDAMKPHEIQEKLGLTRIRDRNWYVQPSCATSGDGLYEGLTWLTSNYKS
partner: B1 chain

One experiment covers variants of B1. The conditions noted are these: with arf6_human ARF6, P62330.
On to D147H, for which the “effect of a mutation on the interaction” value is “decreasing interaction strength”.
A509V: the “effect of a mutation on the interaction” value is “with no effect”.

The variants in the next experiment derive from B2. The note with it: with TBC1D24, Q9ULP9-2.
As to T27N, the “effect of a mutation on the interaction” value was “increasing interaction strength”.
Q67L: the “effect of a mutation on the interaction” value was “with no effect”.

The values are drawn from IntAct's records for PubMed 20727515.
